Reference: the supplement of paper PMC10126150
± gives the standard deviation of the averaged measurements.

Test system: ATP
Experiment: switch fluorescence ratio, 500 uM ATP over buffer (Cy3 cluster intensity, sum of 5 cycles each) (fold (ratio)); higher = stronger signal-on switching upon ATP binding; sequences stand for … in TCGTCGGCAGCGTCAGATGTGTATAAGAGACAGTTTTTTTTTTTTTTTTTTTTTTTTT…TC
Details: aptamer strand: ATP DNA aptamer (quencher-CACCTGGGGGAGTATTGCGGAGGAAGG + anchor), 100 nM annealed; ATP concentration: 500 uM
Summary of the method: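 Clusters with intensities outside 100-1000 RFU were excluded. The remaining Cy3-labelled switching-strand clusters on a modified Illumina MiSeq flow-cell had been annealed to 100 nM quencher-labelled ATP aptamer and imaged in selection buffer, then after 15 min with 500 uM ATP at 22 °C, for five cycles separated by NaOH stripping and re-annealing. The fluorescence ratio, averaged per switch-domain sequence, is each cluster's summed target-cycle Cy3 intensity over its summed buffer-cycle Cy3 intensity.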
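Also: ATP exposure 15 min at 22 °C before imaging.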

Row | Sequence | switch fluorescence ratio
1 | GCGCAGAACG | 1.07 ± 0.015
2 | GCGCAGCTCG | 0.9814 ± 0.0084
3 | GCGCATATTG | 1.051 ± 0.0021
4 | GCGCCGGGGG | 1.03 ± 0.018
5 | GCGCGCACAC | 1.05 ± 0.019
6 | GCGCGCTGGG | 0.9646 ± 0.0044
7 | GCGCGGGGGT | 1.08 ± 0.032
8 | GCGCGGTGTT | 0.988 ± 0.026
9 | GCGCGTGAGC | 1.061 ± 0.0011
10 | GCGCTAATGT | 1.08 ± 0.013
11 | GCGCTACAGT | 1.021 ± 0.0069
12 | GCGCTACGTG | 1.01 ± 0.026
13 | GCGCTCAGAT | 1.02 ± 0.028
14 | GCGCTCAGGT | 1.09 ± 0.13
15 | GCGCTGCTGT | 1.04 ± 0.038
16 | GCGCTGGCGG | 1.01 ± 0.024
17 | GCGCTGTTGG | 0.9996 ± 0.0035
18 | GCGCTTGGGA | 1.03 ± 0.056
19 | GCGCTTGTAC | 2.36 ± 0.55
20 | GCGCTTGTTG | 0.998 ± 0.013
21 | GCGGAAGGGG | 0.988 ± 0.015
22 | GCGGACGGGT | 0.969 ± 0.019

Row | Sequence | switch fluorescence ratio
23 | GCGGAGACTG | 0.962 ± 0.069
24 | GCGGAGGCGT | 0.984 ± 0.01
25 | GCGGAGGCTG | 0.97393 ± 0.00027
26 | GCGGAGGTTT | 0.973 ± 0.034
27 | GCGGAGTTGT | 1.02 ± 0.035
28 | GCGGCAAGGG | 1.03 ± 0.035
29 | GCGGCACGGC | 1.01 ± 0.03
30 | GCGGCAGTCT | 1.03 ± 0.012
31 | GCGGCATTGG | 1.04 ± 0.053
32 | GCGGCCGGGG | 0.999 ± 0.024
33 | GCGGCGGATC | 0.987 ± 0.038
34 | GCGGCTTCTC | 1.018 ± 0.0072
35 | GCGGGACGTG | 0.9857 ± 0.0098
36 | GCGGGACTGT | 1.04 ± 0.046
37 | GCGGGAGGCT | 0.977 ± 0.028
38 | GCGGGCCTGT | 0.9967 ± 0.0099
39 | GCGGGCGGGG | 1.02 ± 0.05
40 | GCGGGCTTGG | 0.974 ± 0.015
41 | GCGGGGATGC | 1.03 ± 0.075
42 | GCGGGGCAAC | 1.01 ± 0.064
43 | GCGGGGCACA | 0.987 ± 0.022
44 | GCGGGGCGAA | 1.01 ± 0.012

Row | Sequence | switch fluorescence ratio
45 | GCGGGGCGTA | 0.995 ± 0.016
46 | GCGGGGGCTT | 0.98 ± 0.033
47 | GCGGGGGTTC | 1.04 ± 0.05
48 | GCGGGGTCAG | 0.989 ± 0.025
49 | GCGGTAATCG | 1.03 ± 0.032
50 | GCGGTACACG | 1.01 ± 0.027
51 | GCGGTAGTCG | 1.02 ± 0.052
52 | GCGGTATAC | 2.72 ± 0.14
53 | GCGGTCGGTA | 1.03 ± 0.038
54 | GCGGTGACGG | 1 ± 0.062
55 | GCGGTGGATC | 1.04 ± 0.027
56 | GCGGTTCGAG | 0.9872 ± 0.0033
57 | GCGGTTGAGG | 1.001 ± 0.009
58 | GCGTAAAGTG | 0.994 ± 0.038
59 | GCGTAATGGT | 1.095 ± 0.0043
60 | GCGTAGTATT | 0.9954 ± 0.0085
61 | GCGTATACGG | 1.01 ± 0.028
62 | GCGTATATAA | 1.04 ± 0.044
63 | GCGTATGTAT | 1.002 ± 0.0068
64 | GCGTCAGGCG | 0.971 ± 0.026
65 | GCGTCAGGGG | 1.03 ± 0.086
66 | GCGTCAGGGT | 0.973 ± 0.027

Row | Sequence | switch fluorescence ratio
67 | GCGTCAGTCG | 0.949 ± 0.015
68 | GCGTCTGGGG | 1.019 ± 0.0046
69 | GCGTCTTCAT | 0.979 ± 0.011
70 | GCGTCTTGTG | 1.02 ± 0.11
71 | GCGTCTTTGG | 0.988 ± 0.026
72 | GCGTGACGGG | 0.989 ± 0.037
73 | GCGTGAGCAC | 0.9745 ± 0.0089
74 | GCGTGATAAT | 1 ± 0.062
75 | GCGTGCATTA | 0.984 ± 0.034
76 | GCGTGCCGAC | 0.9793 ± 0.0041
77 | GCGTGTATGA | 1.02 ± 0.033
78 | GCGTGTATGG | 1.03 ± 0.03
79 | GCGTTAAAAG | 1.03 ± 0.02
80 | GCGTTAACGG | 1.02 ± 0.011
81 | GCGTTACGGG | 1.002 ± 0.0089
82 | GCGTTAGGGG | 0.979 ± 0.016
83 | GCGTTATACA | 0.9979 ± 0.0039
84 | GCGTTATTTG | 0.9878 ± 0.0073
85 | GCGTTCATAG | 0.995 ± 0.023
